Among the data in the Immune Epitope Database (IEDB) are Kd values, retold here.

pKd: −log10 of the molar value.

For one assay, the target named is HLA-A*26:03. The assay is described as follows: IEDB peptide-MHC binding, purified MHC/direct/fluorescence; filed as Kd, often an IC50 or EC50 that approximates it; ≥ and ≤ were set here for values at or beyond the usual limits of such assays.
The next assay concerns the target HLA-B*58:01. Described as above. Conditions: source organism: Influenza A virus (A/swine/Italy/809/1989(H3N2)).
In a further assay the target is HLA-B*48:01. The description is as above. Conditions: source organism: Influenza A virus (A/swine/Italy/809/1989(H3N2)).
A further assay concerns the target HLA-B*57:01. Described as above. Particulars: source organism: Influenza A virus (A/swine/Italy/809/1989(H3N2)).
The target in assay [1] is HLA-A*02:01. The assay is described as above. Particulars: source organism: Influenza A virus (A/swine/Italy/809/1989(H3N2)).
In assay [2] the target is HLA-B*07:02. The description is as above. Conditions: source organism: Influenza A virus (A/swine/Italy/809/1989(H3N2)).
The target in the next assay is HLA-A*01:01. Described as above. Conditions: source organism: Influenza A virus (A/swine/Italy/809/1989(H3N2)).
Another assay addresses HLA-B*18:01. The description is as above. Conditions: source organism: Influenza A virus (A/swine/Italy/809/1989(H3N2)).
A further assay has as its target HLA-A*68:02. The assay is described as above. Particulars: source organism: Influenza A virus (A/swine/Italy/809/1989(H3N2)).
For another assay, the target named is HLA-A*26:02. The assay is described as above.
Another assay deals with HLA-B*27:05. The description is as above. Conditions: source organism: Influenza A virus (A/swine/Italy/809/1989(H3N2)).
The target of another assay is HLA-B*44:02. The assay is described as above. Particulars: source organism: Influenza A virus (A/swine/Italy/809/1989(H3N2)).
The target in the next assay is HLA-B*15:17. Described as above. Particulars: source organism: Influenza A virus (A/swine/Italy/809/1989(H3N2)).
In the next assay the target is HLA-B*40:01. The description is as above. Particulars: source organism: Influenza A virus (A/swine/Italy/809/1989(H3N2)).
In a further assay the target is HLA-B*39:01. Described as above. Conditions: source organism: Influenza A virus H3N2.
Another assay addresses HLA-B*15:01. Described as above. Particulars: source organism: Influenza A virus (A/swine/Italy/809/1989(H3N2)).
Another assay has as its target HLA-A*69:01. Described as above. Particulars: source organism: Influenza A virus (A/swine/Italy/809/1989(H3N2)).
For assay [3], the target named is HLA-A*11:01. The description is as above. Particulars: source organism: Influenza A virus (A/swine/Italy/809/1989(H3N2)).
The target of assay [4] is HLA-A*03:01. The assay is described as above. Particulars: source organism: Influenza A virus (A/swine/Italy/809/1989(H3N2)).
The target of assay [5] is HLA-A*31:01. The assay is described as above. Conditions: source organism: Influenza A virus (A/swine/Italy/809/1989(H3N2)).
Another assay has as its target HLA-B*46:01. Description: IEDB peptide-MHC binding, purified MHC/competitive/fluorescence; filed as Kd, often an IC50 or EC50 that approximates it; ≥ and ≤ were set here for values at or beyond the usual limits of such assays. Conditions: source organism: Bacillus anthracis str. A2012.
The target of another assay is HLA-A*26:01. The assay is described as follows: IEDB peptide-MHC binding, purified MHC/direct/fluorescence; filed as Kd, often an IC50 or EC50 that approximates it; ≥ and ≤ were set here for values at or beyond the usual limits of such assays. Particulars: source organism: Bacillus anthracis str. A0465.
A further assay addresses HLA-C*15:02. The assay is described as above.
Assay [6] has as its target HLA-A*02:01. Description: IEDB peptide-MHC binding, purified MHC/competitive/fluorescence; filed as Kd, often an IC50 or EC50 that approximates it; ≥ and ≤ were set here for values at or beyond the usual limits of such assays.
The target in another assay is HLA-C*08:02. Description: IEDB peptide-MHC binding, purified MHC/direct/fluorescence; filed as Kd, often an IC50 or EC50 that approximates it; ≥ and ≤ were set here for values at or beyond the usual limits of such assays.
The target in assay [7] is HLA-B*07:02. Description: IEDB peptide-MHC binding, purified MHC/competitive/radioactivity; filed as Kd, often an IC50 or EC50 that approximates it; ≥ and ≤ were set here for values at or beyond the usual limits of such assays. Particulars: source organism: Vaccinia virus Copenhagen.
A further assay deals with HLA-B*35:01. The description is as above. Conditions: source organism: Vaccinia virus Copenhagen.
For another assay, the target named is HLA-B*54:01. The assay is described as above. Particulars: source organism: Vaccinia virus Copenhagen.
Assay [8] has as its target HLA-A*11:01. The assay is described as above. Conditions: source organism: Vaccinia virus Copenhagen.
In assay [9] the target is HLA-A*03:01. Described as above. Conditions: source organism: Vaccinia virus Copenhagen.
The target of another assay is HLA-A*68:01. The assay is described as above. Particulars: source organism: Vaccinia virus Copenhagen.
In another assay the target is HLA-B*53:01. The assay is described as above. Conditions: source organism: Vaccinia virus Copenhagen.
The target in the next assay is HLA-A*33:01. The description is as above. Particulars: source organism: Vaccinia virus Copenhagen.
The target in assay [10] is HLA-A*31:01. The assay is described as above. Particulars: source organism: Vaccinia virus Copenhagen.
The next assay concerns the target HLA-B*51:01. Described as above. Particulars: source organism: Vaccinia virus Copenhagen.
The next assay deals with HLA-A*02:12. The assay is described as follows: IEDB peptide-MHC binding, purified MHC/competitive/fluorescence; filed as Kd, often an IC50 or EC50 that approximates it; ≥ and ≤ were set here for values at or beyond the usual limits of such assays. Conditions: source organism: Burkholderia mallei SAVP1.
For the next assay, the target named is HLA-C*03:03. Description: IEDB peptide-MHC binding, purified MHC/direct/fluorescence; filed as Kd, often an IC50 or EC50 that approximates it; ≥ and ≤ were set here for values at or beyond the usual limits of such assays. Conditions: source organism: Burkholderia mallei SAVP1.
A further assay addresses HLA-A*02:02. Description: IEDB peptide-MHC binding, purified MHC/competitive/radioactivity; filed as Kd, often an IC50 or EC50 that approximates it; ≥ and ≤ were set here for values at or beyond the usual limits of such assays. Particulars: source organism: Vaccinia virus WR.
In a further assay the target is HLA-A*02:06. The assay is described as above. Particulars: source organism: Vaccinia virus WR.
Another assay deals with HLA-A*02:03. The description is as above. Conditions: source organism: Vaccinia virus WR.
The next assay addresses HLA-C*05:01. The assay is described as follows: IEDB peptide-MHC binding, purified MHC/direct/fluorescence; filed as Kd, often an IC50 or EC50 that approximates it; ≥ and ≤ were set here for values at or beyond the usual limits of such assays. Conditions: source organism: human gammaherpesvirus 4.
Setting [11] is: source organism: Influenza A virus H3N2.
The mark [12] stands for this setting: source organism: Burkholderia mallei SAVP1.
Setting [13] is: source organism: Vaccinia virus Copenhagen.

As usually defined, the pKd is the negative decadic logarithm of the Kd, by convention in mol/L. In turn, QTWHGDAPY showed a pKd with HLA-A*26:03 (source organism: Vibrio parahaemolyticus AQ3810) of 6.56.

With EEIRRIWRQ, the pKd with HLA-B*58:01, with HLA-B*48:01, with HLA-B*57:01, with HLA-A*02:01 [1], with HLA-B*07:02 [2] and in the assay with HLA-A*26:03 (setting [11]) was at most 4.70 in each case. Besides, the negative-log Kd (pKd) with HLA-A*01:01 is at most 4.70; with HLA-B*18:01, 5.04; with HLA-A*68:02, at most 4.70; in the assay with HLA-A*26:02 (setting [11]) it was at most 4.70; in the assay with HLA-B*27:05 it was at most 4.70; with HLA-B*44:02, at most 4.70. Also, the pKd in the assay with HLA-B*15:17, with HLA-B*40:01, with HLA-B*39:01, in the assay with HLA-B*15:01, in the assay with HLA-A*69:01 and with HLA-A*11:01 [3] was at most 4.70 each time. Further, the pKd with HLA-A*03:01 [4] and in the assay with HLA-A*31:01 [5] was at most 4.70 throughout.

FFLFPMAAY: the figures for the pKd in the assay with HLA-B*46:01, in the assay with HLA-A*26:02 (source organism: Bacillus anthracis str. A0465) and in the assay with HLA-A*26:01 were 7.01, 8.70 and 6.31, respectively.

In the case of TSYPTAVQF, the pKd with HLA-C*15:02 (source organism: Pseudomonas aeruginosa PACS2) is 6.97.

Regarding ILDDNLYKV, the pKd with HLA-A*02:01 [6] (source organism: Variola virus) is 9.15; with HLA-C*08:02 (source organism: Variola virus), 6.42; in the assay with HLA-B*07:02 [7], at most 4.11; in the assay with HLA-B*35:01, at most 4.11; with HLA-B*54:01 it was at most 4.11; with HLA-A*11:01 [8], 5.56. Moreover, the negative-log Kd (pKd) was 4.91 with HLA-A*03:01 [9]; at most 4.11 with HLA-A*68:01; at most 4.11 with HLA-B*53:01; at most 4.11 with HLA-A*33:01; at most 4.27 in the assay with HLA-A*31:01 [10]; at most 4.11 with HLA-B*51:01.

For YVTPRALEL, the pKd with HLA-A*02:01 [6] (setting [12]) is 5.76; with HLA-A*02:12, at most 5.00; in the assay with HLA-C*08:02 (setting [12]), 6.91; with HLA-C*03:03, at least 9.00.

On to KLFTHDIML, for which the pKd with HLA-A*02:01 [6] (setting [13]) is 9.30; in the assay with HLA-C*15:02 (setting [13]) it was at most 4.70; in the assay with HLA-A*02:02, 8.98; with HLA-A*02:06, 8.32; in the assay with HLA-A*02:03 it was 8.53.

In the case of ASDYSQGAF, the pKd in the assay with HLA-C*08:02 (source organism: human gammaherpesvirus 4) and with HLA-C*05:01 was at least 9.00 in each case.
